Assay results from patent US20230235078A1 (University of Texas, published 2023).

T1: mouse DDR1 ECD (mouse, UniProt Q03146 22-415)
T1 construct: extracellular domain; construct not described; also called mouse ECD
T1 sequence (looked up): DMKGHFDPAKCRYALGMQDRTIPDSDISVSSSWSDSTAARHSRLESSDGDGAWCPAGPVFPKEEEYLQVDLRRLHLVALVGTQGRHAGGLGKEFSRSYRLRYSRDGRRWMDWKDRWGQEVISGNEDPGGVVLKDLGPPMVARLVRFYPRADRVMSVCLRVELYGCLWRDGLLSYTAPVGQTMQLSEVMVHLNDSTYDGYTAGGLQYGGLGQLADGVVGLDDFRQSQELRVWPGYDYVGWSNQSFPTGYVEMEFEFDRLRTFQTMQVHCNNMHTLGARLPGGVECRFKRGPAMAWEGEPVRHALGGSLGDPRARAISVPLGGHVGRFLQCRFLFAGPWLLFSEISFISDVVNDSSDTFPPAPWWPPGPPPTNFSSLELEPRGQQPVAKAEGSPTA

T2: human DDR2 ECD (human, UniProt Q16832 22-399)
T2 construct: extracellular domain; also called DDR2 ECD protein
T2 sequence (looked up): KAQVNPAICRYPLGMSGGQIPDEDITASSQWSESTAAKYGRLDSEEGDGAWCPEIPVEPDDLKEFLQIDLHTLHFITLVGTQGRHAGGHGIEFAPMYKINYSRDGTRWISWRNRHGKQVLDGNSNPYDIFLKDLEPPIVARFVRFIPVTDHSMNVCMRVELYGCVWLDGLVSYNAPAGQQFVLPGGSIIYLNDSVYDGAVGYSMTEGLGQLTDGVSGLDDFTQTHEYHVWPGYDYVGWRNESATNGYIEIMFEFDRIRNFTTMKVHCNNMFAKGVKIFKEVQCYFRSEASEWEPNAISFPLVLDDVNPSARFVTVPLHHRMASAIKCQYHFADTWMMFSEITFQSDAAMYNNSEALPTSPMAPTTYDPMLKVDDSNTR


Tests used:
Type I collagen = experiment: ELISA on coated type I collagen with conditioned media
mouse DDR1 ECD = molecular target: T1, mouse DDR1 ECD; experiment: titration ELISA on mouse DDR1
human DDR2 ECD = molecular target: T2, human DDR2 ECD; experiment: ELISA, DDR2 ECD coated, antibody at 1 ug/ml, HRP anti-rabbit detection
Description: FIG. 19. Determination of cross-reactivity of a panel of monoclonal antibodies to human DDR2 using ELISA method. DDR1 or DDR2 ECD protein was coated on a high binding plate and each of monoclonal antibodies at 1 ug/ml concentration was added for binding detection with HRP conjugated anti-rabbit antibody (Jackson ImmuneResearch, PA).
To determination cross-reactivity of a panel of anti-human DDR1 monoclonal antibodies to human DDR2 ECD, an ELISA method was used. DDR1 ECD or DDR2 ECD protein was coated on a high binding plate and each of monoclonal antibodies was applied at 1 ug/ml concentration and binding was detected using HRP conjugated anti-rabbit antibody (Jackson ImmuneResearch, PA). Monoclonal antibodies DDR1-3; DDR1-9; DDR1-10; DDR1-14 and DDR1-33 were specific for DDR1 epitopes, while clones DDR1-13; DDR1-15; DDR1-21; DDR1-22 and DDR1-34 appear to recognize epitopes present on both DDR1 and DDR2 ECD.

[1] = molecular target: T3, Human DDR1 extracellular domain (ECD) protein (human, UniProt Q08345 21-417); experiment: titration ELISA; target not given, human DDR1 assumed
T3 construct: it is treated here as the same molecule; also called recombinant human DDR1 ECD; huDDR1 ECD; not shown: 6xHIS-tag
Target sequence in this assay (Q08345 21-417): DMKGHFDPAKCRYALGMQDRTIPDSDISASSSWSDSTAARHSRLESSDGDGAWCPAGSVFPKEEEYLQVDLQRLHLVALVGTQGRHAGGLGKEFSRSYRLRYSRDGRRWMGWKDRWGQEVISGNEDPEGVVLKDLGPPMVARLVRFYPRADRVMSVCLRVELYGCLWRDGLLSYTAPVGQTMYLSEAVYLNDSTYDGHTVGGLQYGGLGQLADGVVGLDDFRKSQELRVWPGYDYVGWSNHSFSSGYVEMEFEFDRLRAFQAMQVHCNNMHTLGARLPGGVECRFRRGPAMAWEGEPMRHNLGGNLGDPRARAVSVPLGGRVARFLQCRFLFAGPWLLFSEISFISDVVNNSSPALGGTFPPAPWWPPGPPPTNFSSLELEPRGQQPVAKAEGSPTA

[2] = molecular target: T3, Human DDR1 extracellular domain (ECD) …; experiment: titration ELISA on human DDR1
[3] = molecular target: T3, Human DDR1 extracellular domain (ECD) …; experiment: BLI (Octet 96-Red), antibody on protein A biosensors, recombinant DDR1 0.1-200 nM, 1:1 fit
Description: Binding affinity of anti-DDR1 monoclonal antibodies determined using Bio-layer interferometry (BLI) sensor-based Octet instrument. […] Following a short baseline in kinetics buffer, the loaded biosensors were exposed to a series of recombinant DDR1 protein at 0.1-200 nM and background subtraction was used to correct for sensor drifting. All experiments were performed with shaking at 1,000 rpm. Background wavelength shifts were measured from reference biosensors that were loaded only with antibody. Kinetic sensorgrams for each antibody are shown in FIGS. 10A-B. ForteBio's data analysis software was used to fit the data to a 1:1 binding model to extract an association rate and dissociation rate. The KD was calculated using the ratio of koff/kₒₙ and the estimated values of KD for DDR1 mAbs in Table 13.
Target sequence in this assay (Q08345 21-417): as above

[4] = molecular target: DDR1 ECD fragment with deletion of DS domain (Homo sapiens (Human)) (UniProt Q08345); experiment: ELISA, domain deletion protein coated at 2 ug/ml, antibody titration
[5] = molecular target: T3, Human DDR1 extracellular domain (ECD) …; experiment: BLI (Octet); target not given, recombinant DDR1 assumed
[6] = molecular target: T3, Human DDR1 extracellular domain (ECD) …; experiment: ELISA, ECD protein coated at 2 ug/ml, antibody titration
Description: (§1) FIG. 18A-C. Determination of DDR1 antibody binding to ECD and DS or DSL domains using ELISA method. Recombinant DDR1 extracellular (ECD) protein and domain proteins were coated on a high binding 96-well plates at concentration at 2 μg/ml. (FIG. 18A) DDR1-9Hu antibody titration was used to determine binding curves and EC₅₀s. […] (FIG. 18C)
(§2) Antibody binding domain determination. To determine the binding of DDR1-9 (FIG. 18B) and DDR1-14 (FIG. 18C), and humanized DDR1-9hu-Abl to ECD and DS or DSL domains an ELISA method was used (FIG. 18A). Recombinant DDR1 extracellular (ECD) protein and domain deletion proteins were coated onto high binding 96-well plates at concentration at 2 ug/ml. […] Recombinantly expressed domain proteins were coated on a high-binding 96-well plate (Fisher Scientific) at concentration at 2 ug/ml. A series of antibody titrations was used to determine binding EC50. Deletion of DSL domain of DDR1 ECD impaired the bindings of both DDR1-9 and DDR1-14 antibodies. […] Fragment with DSL deletion totally abolished DDR1-9, DDR1-14, and DDR1-9Hu binding.

[7] = molecular target: T3, Human DDR1 extracellular domain (ECD) …; experiment: ELISA on DDR1, antibody at 10 and 1 µg/ml
Target sequence in this assay (Q08345 21-417): as above

[8] = molecular target: T3, Human DDR1 extracellular domain (ECD) …; experiment: ELISA, ECD-His coated at 2 µg/ml, antibody titrated
Description: as §1, §2

[9] = molecular target: DDR1 ECD fragment with deletion of DS domain (Homo sapiens (Human)) (UniProt Q08345); experiment: ELISA, ECDΔDS-His coated at 2 µg/ml, antibody titrated

| binding result (human DDR2 ECD) | EC50 [1] | Kd [3] | koff [3] | kon [3] | Molecule | further results |
| --- | --- | --- | --- | --- | --- | --- |
| – | – | – | – | – | mouse DDR1 ECD T58A (from UniProt Q03146 22-415) (receptor) | percent of WT collagen binding affinity (Type I collagen): 50% |
| no binding (tested: 1 ug/ml) | 0.0598 µg/mL | 1.1 nM | 0.00191 s⁻¹ | 1.73e+06 M⁻¹ s⁻¹ | DDR1-3 (antibody, V domains shown, Rabbit variable domains; also called anti-huDDR1 antibody #3; DDR1-3K/DDR1-3H) VH: QSVKESGGRLVTPGTPLTLTCTVSGIDLSSYAMSWVRQAPGKGLEWIGTINIGGGTWDATWARGRFTISRTSTTVDLKITSPTIGDTATYFCARDVDAHTLTYFTLWGPGTLVTISS VL: ELVLTQTPASVSEPVGGTVTIKCQASQTISSWLSWYQQKPGQPPKLLIYYAFNLASGVPSRFKGSGSGTEFTLTISDLECADAATYYCQQGISSSNVDNVFGGGTEVVVK | binding result (mouse DDR1 ECD): no binding; EC50 (read off the curve) [2]: ~0.02 µg/mL |
| – | – | – | – | – | DDR1-9Hu-Ab1 (antibody, V domains shown, Humanized form of DDR1-9; also called DDR1-9hu-Abl; humanized DDR1-9hu antibody) VH: QVQLVESGGRVVQPGRSLRLSCTASGFSLNRYYMLWVRQAPGKGLEWIGTISYGDTTYYASWAKGRFTISRDNSKNTLYLQMNSLRAEDTAVYYCARADTGDNGYLGLQLWGQGTLVTVSS VL: DIQMTQSPSSVSASVGDRVTITCQASQSIGSVLAWYQQKPGKAPKLLISGVFDLASGVPSRFSGSGSGTDFTLTISSLQPEDFATYYCQYIPYGSSPFGGGTKVEIK | EC50 [4]: 0.168 µg/mL; Kd [5]: 0.39 nM; koff [5]: 6.52e-05 s⁻¹; kon [5]: 165000 M⁻¹ s⁻¹; EC50 [6]: 0.083 µg/mL |
| – | – | – | – | – | DDR1-9Hu-Ab2 (antibody, V domains shown, Humanized form of DDR1-9) VH: QVQLVESGGRVVQPGRSLRLSCTASGFSLNRYYMLWVRQAPGKGLEWIGTISYGDTTYYASWAKGRFTISRDNSKNTLYLQMNSLRAEDTAVYYCARADTGDNGYLGLQLWGQGTLVTVSS VL: DIQMTQSPSSVSASVGDRVTITCRASQSIGSVLAWYQQKPGKAPKLLIYGVFSLQSGVPSRFSGSGSGTDFTLTISSLQPEDFATYYCQYIPYGSSPFGGGTKVEIK | Kd [5]: 0.77 nM; koff [5]: 0.000113 s⁻¹; kon [5]: 146000 M⁻¹ s⁻¹ |
| binds | – | – | – | – | DDR1-34 (antibody, V domains shown, Rabbit variable domains; Detected with anti-rabbit HRP antibody in the DDR2 ELISA; also called DDR1-34K/DDR1-34H) VH: QSVKESGGGLVKPEGSLTLTCKASGFDLSSYYYMCWVRQAPGKGLEWIACIYTSSGATWYANWAKGRFTISKTSSTTVTLQMTALTAADTATYFCARGGWCDFNLWGPGTLVTISS VL: ELDLTQTPASVSAAVGGTVTISCQSSENLYKDNYLAWYQQKPGQPPKLLIYGASNLASGVPSRFKGSGSGTQFTLTISDLECDDAATYYCAGGYDSVVDFGGGTEVVVK | binding result [7]: binds |
| no binding (tested: 1 ug/ml) | 0.148 µg/mL | 0.797 nM | 0.000493 s⁻¹ | 619000 M⁻¹ s⁻¹ | DDR1-33 (antibody, V domains shown, Rabbit variable domains; also called anti-huDDR1 #33 antibody; DDR1-33K/DDR1-33H) VH: QSVEESGGRLVTPGGSLTLTCTVSGFSLSSYDMSWVRQAPGKGLEWIGISWNSGFVDYASWAKGRFSISKTSTTVDLKITSPTTEDTATYFCARLGADDIYYFNLWGPGTLVTISS VL: ELVMTQTPASVEAAVGGTVTIKCQASETISSRLAWYQQKPGQPPKLLIYQASKLPSGVPSRFKGTGSGTEYTLTISDLECADAATYYCQGCYYGGGSFYDSAFGGGTEVVVK | EC50 (read off the curve) (mouse DDR1 ECD): ~0.02 µg/mL; EC50 (read off the curve) [2]: ~0.02 µg/mL |
| no binding (tested: 1 ug/ml) | 0.0713 µg/mL | 0.113 nM | 2.27e-05 s⁻¹ | 202000 M⁻¹ s⁻¹ | DDR1-14 (antibody, V domains shown, Rabbit variable domains; also called anti-huDDR1 antibody #14; DDR1-14K/DDR1-14H) VH: QSVKESGGRLVTPGTPLTLTCTVSGIDLSYYAMSWVRQAPGKGLEYIGIINGRGDTGYATWAKGRFTISKTSTTVDLRITSPTIEDTATYFCAREDSAIPFIVGNYYGMDLWGPGTLVTVSS VL: ELDMTQTPASVSEPVGGTVTIKCQASQSISSYLAWYQQKPGQPPKRLIFEASTLASGVPSRFSGSGSGTDFTLTISDLECADAATYYCQNNNGFSGSNFNNFGGGTEVEIK | binding result (mouse DDR1 ECD): no binding |
| no binding (tested: 1 ug/ml) | 0.183 µg/mL | 0.236 nM | 7.35e-05 s⁻¹ | 311000 M⁻¹ s⁻¹ | DDR1-9 (antibody, V domains shown, Rabbit variable domains; also called anti-huDDR1 antibody #9; DDR1-9K/DDR1-9H) VH: QSLEESGGRLVTPGTPLTLTCTASGFSLNRYYMLWVRQAPGEGLEWIGTISYGDTTYYASWAKGRFTISKTSTTVDLKMTSPTTEDTATYFCARADTGDNGYLGLQLWGPGTLVTVSS VL: ELVMTQTPASVEAAVGGTVTIKCQASQSIGSVLAWYQQKPGQRPKLLISGVFDLASGVPSRFKGSGSGTEFTLTISDLECADAATYYCQYIPYGSSPFGGGTEVVVK | EC50 (read off the curve) [8]: ~0.2 µg/mL; EC50 (read off the curve) [9]: 0.2 µg/mL |
